The target in experiment [1] is tail hub of bacteriophage Epsilon15 (bacteriophage Epsilon15). The experiment is described as follows: cryo-EM structure; asymmetric single-particle reconstruction of whole ϵ15 virions (iodixanol-purified, in PBS, graphene oxide-coated grids, Titan Krios 300 kV, RELION 2.0), with focused refinement of the portal at ~7 Å.
Experiment [2] concerns the target portal protein gp4 of bacteriophage Epsilon15 (portal complex) (bacteriophage Epsilon15). Described as above.

As usually defined, the stoichiometry N is the number of molecules, sites or subunits per partner or assembly.

Regarding “tail hub of bacteriophage Epsilon15 (complex)”, in experiment [1], the stoichiometry N is 6.
Substance “portal protein gp4 of bacteriophage Epsilon15 (portal complex) (natural protein)” registered a stoichiometry N in experiment [2] of 12.

The record behind these values is PMC12391199.
